According to paper PMC7865483:

Target: EE-tagged Pank1β (pantothenate kinase 1β), stably overexpressed in HEK293 cells (UniProt Q8TE04)
Experiment: proximity ligation; in situ PLA (Duolink) on fixed HEK293/Pank1β cells with anti-Pank1 and anti-CoAsy, anti-PPCS or anti-PPCDC antibodies; exponentially growing cells in full medium; for Pank1/CoAsy also after 16 h serum starvation, serum starvation + 500 μM H2O2 for 10 min, and serum starvation + 1 μM insulin for 3 h or 6 h

EE-tagged Pank1β (pantothenate kinase 1β), stably overexpressed in HEK293 cells, sequence (Q8TE04 other isoform, or with tags, fused parts or gaps): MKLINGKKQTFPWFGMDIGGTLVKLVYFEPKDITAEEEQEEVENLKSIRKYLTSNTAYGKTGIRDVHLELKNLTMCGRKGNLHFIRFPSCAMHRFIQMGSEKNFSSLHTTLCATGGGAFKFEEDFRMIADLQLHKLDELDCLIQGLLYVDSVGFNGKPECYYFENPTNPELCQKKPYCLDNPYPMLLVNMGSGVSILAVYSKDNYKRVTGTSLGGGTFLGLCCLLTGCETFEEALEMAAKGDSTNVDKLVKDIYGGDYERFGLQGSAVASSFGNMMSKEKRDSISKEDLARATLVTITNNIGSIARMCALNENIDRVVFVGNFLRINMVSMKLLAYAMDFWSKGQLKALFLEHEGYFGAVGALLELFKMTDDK

- fold increase of the PLA signal after serum starvation or serum starvation + H2O2, against control cells: 2 fold
Substance: CoA synthase (CoAsy) (from UniProt Q13057 1-564) (enzyme)
